This note sets out measurements from patent publication US20220396632A1 (VERSEAU THERAPEUTICS, published 2022).

The target in test [1] is T1, 42-80 (C-terminal Lys-biotin).
T1 construct: also called Biotin PSGL-1(42-80) peptide
T1 peptide: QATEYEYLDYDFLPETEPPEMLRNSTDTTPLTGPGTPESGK
The test is described as follows: ELISA, streptavidin-immobilized biotin peptide, 10 nM mAb [cont.]. The method, then: (§1) A typical ELISA experiment involved binding of a single concentration or serially diluted mAb in assay buffer (3% BSA in PBS containing 0.05% Tween®20, pH 7.4) onto BSA blocked high binding microtiter plate half-wells (Corning Cat. #3690), which contained PSGL-1 protein or streptavidin-immobilized biotin peptide. After incubation for 45 min. at 37° C., the plate was washed 3 times with wash buffer (PBS containing 0.05% Tween®20, pH 7.4), and an appropriate HRP-conjugated secondary antibody added (25 ul/well) (HRP goat anti-mouse or anti-human IgG). After 45 min. incubation at 37° C., the plate was washed and antibody bound to plate-immobilized target was determined at A450 nm using HRP substrate (3,3′5,5′-tetramethylbenzidine (TMB)). For each antibody, duplicate values were averaged and assay background subtracted.

The target of test [2] is T2, Recombinant human PSGL-1(ECD)-hFc1 (R&D Systems, Cat. 3345-PS) (human, UniProt Q14242 42-305).
T2 construct: Bought; Gln42-Val295 counted on AAC50061; also called PSGL-1-Fc; PSGL-1-hFc1 chimera; not shown: human IgG1 Fc, Pro100-Lys330
T2 sequence: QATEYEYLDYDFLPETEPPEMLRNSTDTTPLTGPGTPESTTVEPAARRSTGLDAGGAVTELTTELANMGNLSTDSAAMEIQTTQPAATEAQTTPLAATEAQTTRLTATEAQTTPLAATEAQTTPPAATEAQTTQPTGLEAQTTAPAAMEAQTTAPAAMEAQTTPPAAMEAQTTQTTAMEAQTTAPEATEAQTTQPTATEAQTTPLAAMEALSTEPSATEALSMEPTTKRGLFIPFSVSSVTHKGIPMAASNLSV
The test is described as follows: ELISA, plate-bound target. How it is done: Two ELISA methods were performed. One procedure detected mAb binding to its plate-immobilized target and the other measured the immobilized antibody's ability to capture biotinylated PSGL-1₄₂₋₆₂. […] The plate was incubated for 45 min at 37° C. Plates were washed 3 times with wash buffer (PBS containing 0.05% tween 20, pH 7.4) and a single concentration (2 to 500 nM) or serially diluted (0.002-100 nM) anti-PSGL-1 mAb was added (25 ul/well) in assay buffer into appropriate wells. The plate was incubated for 45 min at 37° C., washed 3 times, and an appropriate HRP-conjugated secondary antibody added (25 ul/well) (HRP goat anti-mouse or anti-human IgG). After 45 min incubation at 37° C., the plate was washed, and antibody bound to plate-immobilized target was determined at A450 nm using HRP substrate (3,3′,5,5′-etramethylbenzidine (TMB)). For each antibody, duplicate values were averaged and assay background was subtracted. Except for the following, ELISAs involving plate-immobilized mAb capturing of biotinylated PSGL-1₄₂₋₆₂ peptides was performed in the same manner as described above: 3 ug/mL/25 ul per well of mAb was coated directly onto microtiter plate wells; biotinylated unmodified or sulfotyrosine PSGL-1₄₂₋₆₂ was serially diluted (3 nM-3 uM) into appropriate wells, and antibody-bound peptide was detected using HRP-streptavidin (Jackson Immunoresearch, Cat. #016-030-084).
In general terms: In an ELISA, binding on a coated surface is turned into a signal by an enzyme label.

Test [3] concerns the target T3, Biotin PSGL-1(105-125) peptide (human, N-terminal acetyl; C-terminal Lys-biotin).
T3 peptide: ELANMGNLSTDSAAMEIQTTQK
The experiment in a line: ELISA, streptavidin-bound peptide. The method, then:
as §1

B1: 18F02 (antibody, V domains shown)
VH: QVQLQQPGAELVKPGASVKLSCKASGYTFTSYWMHWVKQRPGQGLEWIGMIHPNSGRTNYNEKFKSKATLTVDKSSSTAYMQLSSLTSEDSAVYYCARSDYWGQGTTLTVSS
VL: DIVMTQAAFSNPVTLGTSASISCRSSKSLLHSDGITYLYWFLQRPGQSPQLLIYRMSNLASGVPDRFSGSGSGTDFTLRISRVEAEDVGVYYCAQMLEFPRTFGGGTKLEIK
notes: From mouse immunisation; only variable domains given
B1: the binding result in test [1] is given as “binds”.

B2: 20I15 (antibody, V domains shown)
VH: EVKLVESGGGLVQPGGSLSLSCAASGFTFTDYYMSWVRQPPGKALEWLGFIRNKANGYTTEYSASVKGRFTISRDNSQSILYLQMNALRAEDSATYYCARTYLRRGYFDVWGTGTTVTVSS
VL: DIVLTQSPASLAVSLGQRATISCRASKSVSTSGYSYMHWFQQKPGQPPKLLIYLASNLESGVPARFSGSGSGTDFTLNIHPVEEEDAATYYCQHSRELPLTFGAGTKLELK
notes: From mouse immunisation; only variable domains given; also called 20115
Consider B2, for which the EC50 (usually the concentration at which the effect is half-maximal) in test [2] worked out at 0.26 nM.

B3: 16E17 (antibody, V domains shown)
VH: QIQLVQSGPELKKPGETVKISCKASGYAFTTYGMSWVKQAPGKGLKWMGWINTYSGVPKYADDFKGRFAFSLETSASTAYLHINNLKNEDTATYFCGRHYYGSSYFDYWGQGTTLTVSS
VL: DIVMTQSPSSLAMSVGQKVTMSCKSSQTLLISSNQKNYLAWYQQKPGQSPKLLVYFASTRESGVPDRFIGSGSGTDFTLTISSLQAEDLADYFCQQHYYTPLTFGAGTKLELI
notes: as for B1
Consider B3, for which the “fold weaker binding than to PSGL-1(ECD)-hFc1” value in test [3] is roughly 20 fold.
